# Reference: PMC11672532
# Biological target: c-Met ((A549 lung cancer cells)) (UniProt P08581)
# Test: flow cytometry on cells
# Settings: 5' and 3' cholesterol on ASO strand; Intact A549 or HeLa cells, FAM-labeled DNA, flow cytometry (30 min in Fig S8); binding buffer and temperature not given in the material
# Sequence of c-Met ((A549 lung cancer cells)) (P08581 25-1390): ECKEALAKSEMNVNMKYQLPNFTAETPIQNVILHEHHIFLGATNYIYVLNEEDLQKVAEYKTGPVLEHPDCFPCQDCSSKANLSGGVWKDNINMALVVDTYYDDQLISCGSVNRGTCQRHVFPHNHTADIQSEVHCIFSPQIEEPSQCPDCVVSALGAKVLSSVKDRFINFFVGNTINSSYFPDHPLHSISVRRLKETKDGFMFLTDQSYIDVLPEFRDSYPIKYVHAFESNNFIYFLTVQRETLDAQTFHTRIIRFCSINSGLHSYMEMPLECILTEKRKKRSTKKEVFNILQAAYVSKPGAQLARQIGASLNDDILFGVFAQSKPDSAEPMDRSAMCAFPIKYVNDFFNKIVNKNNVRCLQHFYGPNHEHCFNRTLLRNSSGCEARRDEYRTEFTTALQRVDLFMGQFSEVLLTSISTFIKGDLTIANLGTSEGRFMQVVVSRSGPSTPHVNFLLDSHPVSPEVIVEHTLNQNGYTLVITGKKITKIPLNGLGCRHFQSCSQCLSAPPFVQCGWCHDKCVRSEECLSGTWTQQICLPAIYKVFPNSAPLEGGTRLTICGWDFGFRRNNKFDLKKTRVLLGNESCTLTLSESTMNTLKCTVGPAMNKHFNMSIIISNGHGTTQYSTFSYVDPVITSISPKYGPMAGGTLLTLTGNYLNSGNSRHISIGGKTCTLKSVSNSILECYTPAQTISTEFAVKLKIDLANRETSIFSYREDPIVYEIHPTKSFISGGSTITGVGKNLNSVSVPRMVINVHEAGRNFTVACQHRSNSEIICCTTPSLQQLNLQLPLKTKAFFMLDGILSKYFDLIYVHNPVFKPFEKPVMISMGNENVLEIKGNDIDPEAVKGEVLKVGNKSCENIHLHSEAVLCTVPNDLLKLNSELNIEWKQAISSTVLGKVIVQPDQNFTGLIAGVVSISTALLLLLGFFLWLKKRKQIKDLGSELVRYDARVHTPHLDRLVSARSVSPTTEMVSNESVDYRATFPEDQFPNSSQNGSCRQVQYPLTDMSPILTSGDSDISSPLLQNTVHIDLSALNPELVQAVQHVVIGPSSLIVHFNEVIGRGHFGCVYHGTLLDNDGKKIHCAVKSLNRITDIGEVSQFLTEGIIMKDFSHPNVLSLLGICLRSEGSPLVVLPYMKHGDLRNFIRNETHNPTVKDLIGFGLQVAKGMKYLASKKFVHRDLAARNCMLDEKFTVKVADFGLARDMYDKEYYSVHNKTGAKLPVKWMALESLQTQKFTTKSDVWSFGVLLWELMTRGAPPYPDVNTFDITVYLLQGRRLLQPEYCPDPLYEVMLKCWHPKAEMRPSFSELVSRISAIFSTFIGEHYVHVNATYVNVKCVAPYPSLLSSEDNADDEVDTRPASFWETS
sequence,measurement,value
TGGATGGTAGCTCGGTCGGGGTGGGTGGGTTGGCAAGTCT / GGTGTCACAGGCGGGACCCCCGACCGA / GTCCCGCCTGTGACACCTCCCGCCTGTGACATGCATTTTTTTTCCCGCCTGTGACATGCATTGTCCCGCCTGTGACACC / CAACCCACCCGGTGTCACAGGCGGGAC [NT-Ch2-Apt (DNA nanotweezer)],binding signal (fold (A549 / HeLa fluorescence)),2.5
